Test results taken from US11202837B2, “Biological materials and uses thereof” (Antikor Biopharma Limited, priority 2014, dated 2021).
Like-named read-outs stand apart in the source and are kept apart here. Where a SMILES comes first, the peptide text is derived from it. [ ]: non-standard residue; d: D form. Dolaproine = CO[C@@H]([C@@H]1CCCN1)[C@@H](C)C(=O)O; Dil = CC[C@H](C)[C@H](NC)[C@@H](CC(=O)O)OC; NMeV = CN[C@H](C(=O)O)C(C)C

What was measured:
BT474 cells = assay: Cell killing assay (MTS), BT474 cells; format: cell-based, human
Protocol: The cells were recovered by centrifugation (2 min, 2000 rpm), the supernatant was discarded, and the cells were resuspended in complete McCoy's 5A (5 ml). The cells were then counted using a haemocytometer and diluted accordingly. They were plated at 5000 cells/well (200 μl) using attachment factor and incubated overnight at 37° C., 5% CO2 in a humidified atmosphere. U87 is a non-HER2 expressing glioblastoma cell line [Zitron I M et al (2013) BMC Cancer 13:83] and was grown in a similar way, plated at 1000 cells/well (using DMEM media). BT474 is a HER2 expressing breast cancer cell line [Brockhoff G et al (2007) Cell Prolif 40:488-507] and was grown in a similar way, plated at 7500 cells/well (using RPMI media). NCI-N87 is a HER2 expressing gastric cancer cell line [Yamashita-Kashima Y et al (2013) Oncol. Rep 30:1087-93] and was grown in a similar way, plated at 7500 cells/well (using RPMI media).
The cells were exposed to the various ADCs diluted in complete media for 96 hours at 37° C., 5% CO2 in a humidified atmosphere. Cell viability was measured using the Promega Aqueous Cell-titre-96™ aqueous one solution cell proliferation kit (MTS reagent) according to manufacturer's instructions. Briefly, the media was removed and 100 μl of complete phenol red free media, pre-combined with MTS reagent, was added to the cells (20 μl of reagent per 100 μl of media). The plates were read on an ELISA plate reader at 490 nm after a 2 hr incubation in the dark (5% CO2, 37° C.).
The data (absorption units) were converted to % cell survival by using the untreated controls as the 100% cell survival and the Triton X-100 controls as the 100% cell death. The average absorption value for the latter was subtracted from all the rest of the data in order to get a suitable baseline. The averages were converted to survival and standard error values were obtained for each n value (as a % cell survival). […] Experiments were repeated at least 3 times for each compound tested and a set or an average of the data was plotted and fitted to obtain a dose-response curve.

HER2 = HER2 (Homo sapiens, UniProt P04626); assay: Biacore SPR binding to immobilised HER2; details: immobilised HER2
Protocol: The binding affinity against immobilised HER2 target antigen was determined by Biacore SPR compared to the unmodified scFv on a Biacore T200. A standard amine-coupling method was used to prepare all Biacore surfaces (CM5 or CM3), as follows. Flow cells were activated individually by injecting a freshly mixed solution of 0.2M EDC in 0.05 M NHS at 30 μl/min. […] Excess NHS ester was deactivated using a 1 M ethanolamine solution. To measure the kinetics of the antibody and conjugate on the HER2 chip, a […] serial dilution (typically at 5, 2.5, 1.25, 0.6 μg/ml or lower for free antibody and 20, 10, 5, 2.5 μg/ml for the conjugates), was injected for 160 s at 30 μl/min, allowing a 900-s dissociation phase. The dissociation time was extended to 3600 s for the highest concentration. Surfaces were regenerated with 45 s injection of MgCl2 8M.
To evaluate binding ability, manual runs were performed at 30 μl/min with a 60 s injection of the desired compound followed by 60 s waiting time and a 45 s of regeneration at 10 μl/min using MgCl2 8M. All data was analysed using the software, BIAEvaluation.

Molecule | IC50 (BT474 cells; Homo sapiens, BT-474, 96 h, read-out: IC50 pM) [pM] | association rate (HER2) [M⁻¹ s⁻¹] | dissociation rate (HER2) [s⁻¹] | IC50 μg/ml (BT474 cells; BT474 Cells (HER2++), 96 hours, Table 48) [µg/mL] | IC50 (BT474 cells; BT474 Cells (HER2++), 96 hours, Table 48, read-out: IC50) [pM]
CC[C@H](C)[C@@H]([C@@H](CC(=O)N1CCC[C@H]1[C@H](OC)[C@@H](C)C(=O)N[C@@H](Cc1ccccc1)C(=O)O)OC)N(C)C(=O)[C@@H](NC(=O)[C@@H](NC)C(C)C)C(C)C [Free drug MMAF] (H-[NMeV]V[Dil][Dolaproine]F-OH) | > 10000 | – | – | – | –
scFv (TCT1067)-Auristatin-F-C5 DAR 5.65 (conjugate) scFv: SGSGGSGQVQLVQSGAEVKKPGESLKISCKGSGYSFTSYWIAWVRQMPGKGLEYMGLIYPGDSDTKYSPSFQGQVTISVDKSVSTAYLQWSSLKPSDSAVYFCARHDVGYCTDRTCAAWPEWLGVWGQGTLVTVSSGGGGSGGGGSGGGGSQSVLTQPPSVSAAPGQKVTISCSGSSSNIGNNYVSWYQQLPGTAPKLLIYGHTNRPAGVPDRFSGSKSGTSASLAISGFRSEDEADYYCASWDYTLSGWVFGGGTKLTVLMASMTGGQQMG | – | 336000 | 1.35e-05 | – | –
scFv (TCT1067)-P5C5 DAR 10.6 (conjugate) scFv: SGSGGSGQVQLVQSGAEVKKPGESLKISCKGSGYSFTSYWIAWVRQMPGKGLEYMGLIYPGDSDTKYSPSFQGQVTISVDKSVSTAYLQWSSLKPSDSAVYFCARHDVGYCTDRTCAAWPEWLGVWGQGTLVTVSSGGGGSGGGGSGGGGSQSVLTQPPSVSAAPGQKVTISCSGSSSNIGNNYVSWYQQLPGTAPKLLIYGHTNRPAGVPDRFSGSKSGTSASLAISGFRSEDEADYYCASWDYTLSGWVFGGGTKLTVLMASMTGGQQMG | – | – | – | 0.5 | 17800
scFv (TCT1067)-Auristatin-F-C5 DAR 11.9 (conjugate) scFv: SGSGGSGQVQLVQSGAEVKKPGESLKISCKGSGYSFTSYWIAWVRQMPGKGLEYMGLIYPGDSDTKYSPSFQGQVTISVDKSVSTAYLQWSSLKPSDSAVYFCARHDVGYCTDRTCAAWPEWLGVWGQGTLVTVSSGGGGSGGGGSGGGGSQSVLTQPPSVSAAPGQKVTISCSGSSSNIGNNYVSWYQQLPGTAPKLLIYGHTNRPAGVPDRFSGSKSGTSASLAISGFRSEDEADYYCASWDYTLSGWVFGGGTKLTVLMASMTGGQQMG | – | 21700 | 1.76e-05 | – | –
